Source: US20220363775A1 (Memorial Sloan Kettering, published 2022)

T1: human Adhesion G protein-coupled receptor E2 (ADGRE2) (human, UniProt Q9UHX3 24-823)
T1 construct: No signal peptide limits are stated; also called EMR2; CD312
T1 sequence: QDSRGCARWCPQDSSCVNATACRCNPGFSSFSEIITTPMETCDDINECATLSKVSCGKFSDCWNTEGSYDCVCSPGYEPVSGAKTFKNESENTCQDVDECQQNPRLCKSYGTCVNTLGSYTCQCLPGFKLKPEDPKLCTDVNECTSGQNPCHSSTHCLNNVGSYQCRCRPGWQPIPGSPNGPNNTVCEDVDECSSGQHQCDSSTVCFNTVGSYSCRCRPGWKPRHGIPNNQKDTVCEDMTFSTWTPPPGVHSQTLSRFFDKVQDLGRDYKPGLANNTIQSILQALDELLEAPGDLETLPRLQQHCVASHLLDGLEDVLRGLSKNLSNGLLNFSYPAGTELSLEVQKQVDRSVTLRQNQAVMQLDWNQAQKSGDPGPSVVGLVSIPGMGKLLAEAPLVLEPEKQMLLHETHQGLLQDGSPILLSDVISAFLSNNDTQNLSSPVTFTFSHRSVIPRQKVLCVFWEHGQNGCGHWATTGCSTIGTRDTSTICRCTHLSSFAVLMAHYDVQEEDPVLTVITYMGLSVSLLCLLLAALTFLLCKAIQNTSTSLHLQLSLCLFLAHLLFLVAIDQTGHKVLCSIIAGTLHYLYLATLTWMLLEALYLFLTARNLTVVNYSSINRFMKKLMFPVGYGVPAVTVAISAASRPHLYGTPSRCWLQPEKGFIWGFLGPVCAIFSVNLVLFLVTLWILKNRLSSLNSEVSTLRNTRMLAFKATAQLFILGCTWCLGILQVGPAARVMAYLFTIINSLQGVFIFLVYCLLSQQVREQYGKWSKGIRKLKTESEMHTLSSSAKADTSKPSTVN

T2: ADGRE5 (human, UniProt P48960 21-835)
T2 construct: whole, on cells
T2 sequence (looked up): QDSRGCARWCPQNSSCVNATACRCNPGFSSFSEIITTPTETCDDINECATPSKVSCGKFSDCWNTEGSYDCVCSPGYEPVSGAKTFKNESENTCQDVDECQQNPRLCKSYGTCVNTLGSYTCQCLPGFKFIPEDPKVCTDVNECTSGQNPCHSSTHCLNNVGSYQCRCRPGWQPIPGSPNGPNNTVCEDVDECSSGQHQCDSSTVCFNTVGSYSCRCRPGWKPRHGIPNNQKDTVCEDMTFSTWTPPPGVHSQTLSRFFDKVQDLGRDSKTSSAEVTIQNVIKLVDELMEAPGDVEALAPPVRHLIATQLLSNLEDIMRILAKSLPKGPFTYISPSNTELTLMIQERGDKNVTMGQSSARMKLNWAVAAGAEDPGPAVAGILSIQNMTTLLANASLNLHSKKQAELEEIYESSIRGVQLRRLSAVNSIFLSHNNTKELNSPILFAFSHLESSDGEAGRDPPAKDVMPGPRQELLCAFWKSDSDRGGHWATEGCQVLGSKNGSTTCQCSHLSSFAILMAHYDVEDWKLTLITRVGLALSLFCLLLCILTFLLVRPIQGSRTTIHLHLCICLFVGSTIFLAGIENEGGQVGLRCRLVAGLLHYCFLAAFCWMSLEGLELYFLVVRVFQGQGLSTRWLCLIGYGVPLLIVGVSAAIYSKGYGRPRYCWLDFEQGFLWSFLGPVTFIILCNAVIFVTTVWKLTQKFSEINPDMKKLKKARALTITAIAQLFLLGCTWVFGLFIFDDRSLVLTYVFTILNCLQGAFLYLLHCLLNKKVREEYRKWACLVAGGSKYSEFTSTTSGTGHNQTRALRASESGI

T3: ADGRE1 (human, UniProt Q14246 21-886)
T3 construct: whole, on cells
T3 sequence (looked up): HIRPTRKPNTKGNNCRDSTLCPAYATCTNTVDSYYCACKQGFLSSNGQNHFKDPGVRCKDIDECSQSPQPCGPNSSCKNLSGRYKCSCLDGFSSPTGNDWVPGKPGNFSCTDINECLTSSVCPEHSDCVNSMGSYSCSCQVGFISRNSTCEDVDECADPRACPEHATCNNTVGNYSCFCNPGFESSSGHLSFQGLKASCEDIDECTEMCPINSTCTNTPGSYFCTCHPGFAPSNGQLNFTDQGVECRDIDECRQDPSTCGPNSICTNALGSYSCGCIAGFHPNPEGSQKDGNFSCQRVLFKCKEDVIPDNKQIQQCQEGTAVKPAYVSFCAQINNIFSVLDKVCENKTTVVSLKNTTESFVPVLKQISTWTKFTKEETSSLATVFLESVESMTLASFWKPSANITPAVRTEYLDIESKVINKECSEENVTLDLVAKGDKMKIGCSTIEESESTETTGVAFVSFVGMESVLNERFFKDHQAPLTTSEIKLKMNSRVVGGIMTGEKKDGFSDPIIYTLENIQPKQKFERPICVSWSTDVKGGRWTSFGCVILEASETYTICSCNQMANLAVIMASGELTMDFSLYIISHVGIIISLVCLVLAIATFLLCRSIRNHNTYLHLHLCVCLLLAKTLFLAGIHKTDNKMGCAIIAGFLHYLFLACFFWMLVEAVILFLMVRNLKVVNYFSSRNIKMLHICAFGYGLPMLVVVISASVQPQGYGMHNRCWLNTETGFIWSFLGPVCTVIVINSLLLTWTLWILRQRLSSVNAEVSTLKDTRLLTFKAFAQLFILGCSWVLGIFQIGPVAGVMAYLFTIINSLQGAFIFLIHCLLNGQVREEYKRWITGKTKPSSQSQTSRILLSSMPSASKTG

T4: ADGRE3 (human, UniProt Q9BY15 22-652)
T4 construct: whole, on cells
T4 sequence (looked up): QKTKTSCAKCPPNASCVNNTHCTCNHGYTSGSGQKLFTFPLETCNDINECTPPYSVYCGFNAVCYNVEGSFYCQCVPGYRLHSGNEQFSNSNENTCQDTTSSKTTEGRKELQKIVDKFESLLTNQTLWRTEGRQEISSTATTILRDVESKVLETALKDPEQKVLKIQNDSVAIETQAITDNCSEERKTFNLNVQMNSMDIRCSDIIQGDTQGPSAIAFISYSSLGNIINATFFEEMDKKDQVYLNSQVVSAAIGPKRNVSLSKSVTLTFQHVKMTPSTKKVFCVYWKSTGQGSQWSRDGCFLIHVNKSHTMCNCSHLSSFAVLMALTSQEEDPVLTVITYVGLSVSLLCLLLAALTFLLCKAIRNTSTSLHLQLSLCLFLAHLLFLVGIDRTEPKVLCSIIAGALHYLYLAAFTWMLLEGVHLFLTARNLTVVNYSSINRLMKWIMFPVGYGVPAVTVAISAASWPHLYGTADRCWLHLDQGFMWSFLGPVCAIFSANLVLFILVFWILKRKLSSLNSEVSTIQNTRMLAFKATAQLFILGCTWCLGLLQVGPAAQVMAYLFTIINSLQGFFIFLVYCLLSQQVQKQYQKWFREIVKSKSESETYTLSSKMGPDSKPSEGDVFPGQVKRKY


Assays:
[1] = target: T1, human Adhesion G protein-coupled …; test: flow cytometry, scFv titration on EL4 cells overexpressing ADGRE2
Protocol: This example illustrates the on-cell binding for the anti-ADGRE2 scFvs as measured by flow cytometry. The on-cell binding for the anti-ADGRE2 scFvs was assessed by flow cytometry on the E4 cells overexpressing ADGRE2. Each of the scFvs were tested for binding to ADGRE2 and compared to the Reference 1 mAb. Briefly, 100,000 cells per well, were plated in 96 well V bottom plate, scFvs were diluted to 200 nMscFv then 1:4 serially down to 0.01 nM. A dose dependent titration of the scFvs validated recombinant scFvs folding and binding to ADGRE2. EC₅₀ affinities were compared in order to better interpret any differences seen in-vivo that might be caused by variations in affinities resulting from the humanization process Data was analyzed using Prism software, using a four parameter regression. The approximate EC₅₀ values were determined using equation: Y=Bottom+(Top−Bottom)/(1+10\hat{ }((Log EC₅₀−X)*HillSlope)) where the fitted parameters are defined as follows: Bottom, the lower plateau describing minimum binding achievable; Top, the upper plateau describing the maximum binding achievable; Log EC50, the inflection point of the dose response curve also known as the concentration producing a half-maximal response; and Hill-Slope, the slope of the dose response curve.

ADGRE5 = target: T2, ADGRE5; test: cell microarray screen on HEK293 cells overexpressing human membrane proteins
Protocol: (§1) The off-target binding interactions of ADGRE2 scFv (ADGRE2-A) and CLEC12A scFv (CLEC12A-A) to human plasma membrane proteins were carried out in a 4-phase approach: (1) pre-screening to determine the optimal concentrations of purified recombinant ADGRE2 scFv-Fc and CLEC12A scFv-Fc test proteins for the screening; (2) screening for binding of the test proteins against fixed HEK293 cells overexpressing 5,474 full-length human plasma membrane proteins and cell surface tethered human secreted proteins and 371 human cell surface heterodimers, which identified library hits; (3) confirmatory/specific screens using fixed-cell and live-cell microarrays; (4) flow cytometry-based follow-on study to investigate further identified test protein-specific interactions on live cells; and (5) cell-to-cell binding assays to confirm positive hits. The table below summarizes the off-binding data for ADGRE2 scFv and CLEC12A scFv.

ADGRE1 = target: T3, ADGRE1; test: as above
Protocol: as §1

ADGRE3 = target: T4, ADGRE3; test: as above
Protocol: as §1

| Binder | EC50 [1] [nM] | other results |
| --- | --- | --- |
| ADGRE2-E scFv (scFv, Recombinant humanized scFv; Any tag is not described) scFv: QVQLQQSGAEVKKPGASVKVSCKASGYTFTNYWMQWVRQAPGQGLEWIGAVYPGDGDTRHTQKFKGRVTMTADKSTSTVYMELSSLRSEDTAVYYCARGFTAYGMDYWGQGTLVTVSSASTGGGGSGGGGSGGGGSQIVLTQSPATLSLSPGERATLTCSASSSVSYMHWYQQKPGLSPKRWIYDTSKLASGVPDRFSGSGSGTDYTFTIRRLEPEDFATYYCQQWSSNPLTFGQGTKVEIK | 10.6 |  |
| ADGRE2-D scFv (scFv, Recombinant humanized scFv; Any tag is not described) scFv: QVQLQQSGAEVKKPGASVKVSCKASGYTFTNYWMQWVRQAPGQGLEWMGAVYPGDGDTRHTQKFKGRVTMTRDTSTSTVYMELSSLRSEDTAVYYCARGFTAYGMDYWGQGTLVTVSSASTGGGGSGGGGSGGGGSEIVLTQSPATLSLSPGERATLSCSASSSVSYMHWYQQKPGLAPRLLIYDTSKLASGIPDRFSGSGSGTDFTLTISRLEPEDFAVYYCQQWSSNPLTFGQGTKVEIK | 16.4 |  |
| ADGRE2-C scFv (scFv, Recombinant humanized scFv; Any tag is not described) scFv: QVQLQQSGAEVKKPGASVKLSCKASGYTFTNYWMQWVRQAPGQGLEWIGAVYPGDGDTRYTQKFQGRATLTADTSTSTVYMEVSSLRSEDTAVYYCARGFTAYGMDYWGQGTTVTVSSGGGGSGGGGSGGGGSEIVLTQSPATMSASPGERVTMSCSASSSVSYMHWYQQKSGLSPKRWIYDTSKLASGVPDRFSGSGSGTDYTFTISRMEPEDFATYYCQQWSSNPLTFGGGTKLEIK | 53.2 |  |
| ADGRE2 scFv-Fc (purified recombinant ADGRE2-A scFv fused to Fc) (Fc fusion, also called ADGRE2 scFv (ADGRE2-A); not shown: Fc part (and any linker) of the scFv-Fc is not described) QVQLQQSGAEVAKPGASVKLSCKASGYTFTNYWMQWIKQAPGQGLEWIGAVYPGDGDTRHTQKFKGKATLTADKSTSTAYMEVSSLRSEDTAVYYCARGFTAYGMDYWGQGTTVTVSSGGGGSGGGGSGGGGSEIVLTQSPATMSASPGERVTMSCSASSSVSYMHWYQQKSGQSPKRWIYDTSKLASGVPARFSGSGSGTDYTFTISSMEPEDFATYYCQQWSSNPLTFGGGTKLEIK |  | binding result (ADGRE5): no binding; binding result (ADGRE1): no binding; binding result (ADGRE3): no binding |
| ADGRE2-A scFv (scFv, Recombinant humanized scFv; Any tag is not described) scFv: QVQLQQSGAEVAKPGASVKLSCKASGYTFTNYWMQWIKQAPGQGLEWIGAVYPGDGDTRHTQKFKGKATLTADKSTSTAYMEVSSLRSEDTAVYYCARGFTAYGMDYWGQGTTVTVSSGGGGSGGGGSGGGGSEIVLTQSPATMSASPGERVTMSCSASSSVSYMHWYQQKSGQSPKRWIYDTSKLASGVPARFSGSGSGTDYTFTISSMEPEDFATYYCQQWSSNPLTFGGGTKLEIK | 93.8 |  |

Second part, led by results:

| EC50 [1] [nM] | Binder | other results |
| --- | --- | --- |
| 16.4 | ADGRE2-F scFv (scFv, Recombinant humanized scFv; Any tag is not described) scFv: QVQLQQSGAEVKKPGASVKLSCKASGYTFTNYWMQWIRQAPGQGLEWIGAVYPGDGDTRYTQKFQGRATLTADTSTSTAYMEVSSLRSEDTAVYYCARGFTAYGMDYWGQGTTVTVSSGGGGSGGGGSGGGGSEIVLTQSPATLSASPGERVTMSCSASSSVSYMHWYQQKPGLAPRRWIYDTSKLASGVPDRFSGSGSGTDYTFTISRMEPEDFATYYCQQWSSNPLTFGGGTKLEIK |  |
| 55.3 | ADGRE2-B scFv (scFv, Recombinant humanized scFv; Any tag is not described) scFv: QVQLQQSGAEVKKPGASVKLSCKASGYTFTNYWMQWIRQAPGQGLEWIGAVYPGDGDTRYTQKFQGRATLTADTSISTAYMEVSRLRSDDTAVYYCARGFTAYGMDYWGQGTTVTVSSGGGGSGGGGSGGGGSEIVLTQSPATMSASPGERVTMSCSASSSVSYMHWYQQKSGLSPKRWIYDTSKLASGVPDRFSGSGSGTDYTFTISRMEPEDFATYYCQQWSSNPLTFGGGTKLEIK |  |
